Patent publication US20230192877A1 (NATIONAL INSTITUTES OF BIOMEDICAL INOVATION HEALTH AND …, published 2023)
Substitutions are numbered along the chain they refer to.

T1: TNFR2 monomeric antigen (UniProt P20333 23-257, limits assumed)
T1 construct: extracellular domain
T1 sequence (looked up): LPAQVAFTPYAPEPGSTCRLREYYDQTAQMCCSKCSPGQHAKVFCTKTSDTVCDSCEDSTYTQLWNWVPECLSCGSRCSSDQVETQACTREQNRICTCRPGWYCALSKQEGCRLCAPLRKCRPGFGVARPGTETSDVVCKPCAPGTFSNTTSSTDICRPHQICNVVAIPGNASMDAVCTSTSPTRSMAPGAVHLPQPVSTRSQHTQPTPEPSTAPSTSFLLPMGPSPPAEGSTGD

T2: tumor necrosis factor receptor 2 (TNFR2) expressed on cells (human, UniProt P20333 23-461)
T2 construct: whole, on cells; also called human TNFR2; TNFRSF1B
T2 sequence (looked up): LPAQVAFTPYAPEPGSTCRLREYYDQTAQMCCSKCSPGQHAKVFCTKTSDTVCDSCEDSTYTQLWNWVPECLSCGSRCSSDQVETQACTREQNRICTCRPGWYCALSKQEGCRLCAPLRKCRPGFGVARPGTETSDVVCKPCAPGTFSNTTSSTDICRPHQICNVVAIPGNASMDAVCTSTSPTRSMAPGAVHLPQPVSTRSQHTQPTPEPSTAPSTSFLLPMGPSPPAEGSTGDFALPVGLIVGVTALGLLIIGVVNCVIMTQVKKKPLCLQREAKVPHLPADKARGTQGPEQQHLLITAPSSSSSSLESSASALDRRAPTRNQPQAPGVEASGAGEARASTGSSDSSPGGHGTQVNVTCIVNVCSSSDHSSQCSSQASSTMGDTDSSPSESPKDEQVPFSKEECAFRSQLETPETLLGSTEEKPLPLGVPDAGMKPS

B1: Bp96-92 epitope region-bridging biparatopic antibody (bispecific antibody, V domains shown)
VH 1: EVQLQQSGAELVKPGASVKLSCTPSGFNIKDTYMHWVKQRPEQGLEWIGRIDPANGYTEYDPKFQDKATITADTSSNTAYLQLSSLTSEDTAVYYCADTQLYYWGQGTTLTVSS
VL 1: QIVLTQSPAIMSASLGERVTMTCTASSSVSSTYLHWYQQKPGSSPKLWIYSTSNLASGVPARFSGSGSGTSYSLTISNMEAEDAATYYCHQYHRSPLTFGAGTKLELKR
VH 2: KVQLQQSGAELVKPGASVKLSCKASGYTFTESIIHWVKQRSGQGLEWIGWFYPGSDNINYNEKFKDKATLTADKSSSTVYMELTRLTSEDSAVYFCASHEGPYVYFDYWGQGTTLTVSS
VL 2: DIVMTQSHKFMSTSVGDRVSITCKASQDVSTAVAWYQQKPGQSPKLLIYWTSTRHTGVPDRFTGSGSGTDYTLTISSVQAEDLALYYCQHHYSTPYTFGGGTKLEIQR
notes: N side Fab joined by split-intein trans-splicing to hinge and hole Fc; C side VH-CH1-hinge-knob Fc plus light chain; Human IgG1 constant regions
B2: Bp109-96 epitope region-bridging biparatopic antibody (bispecific antibody, V domains shown)
VH 1: QVQLKESGPGLVAPSQSLSITCTVSGFSLTVYGVNWVRQPPGKGLEWLGMIWGDGSTAYNSALKSRLTITKDNSKTQVFLKMNSLQTDDTARYYCARDGRRYALDYWGQGTSVTVSS
VL 1: DIVLTQSPTSLAVSLGQRATISCRASESVDSYGDSFLHWYQQKPGQPPILLIYRASNLDSGIPARFSGSGSRTDFTLTINPVEADDVATYYCQQSNEDPYTFGGGTKLEINR
VH 2: B1 VH 1
VL 2: B1 VL 1
notes: as for B1
B3: Bp45-94 epitope region-bridging biparatopic antibody (bispecific antibody, V domains shown)
VH 1: EVQLQQSGPEMEKPGASVKISCKASGYSFTGYNMNWVKQSIGKSLEWIGKIDPYYGGTDYNLRFKDKATLTVDKSSSTAYMHLSRLTSEDSAVYYCAREPNYGSNDWYFDVWGAGTTVTVSS
VL 1: DIQVTQTTSSLSASLGDRVTISCRASQDIDNYLNWYQQRPDGTVKLLIYYTSILHSGVPSRFSGSGSRTDFSLTISSLEEEDFATYFCQQGNTLPWTFGGGTKLEFKR
VH 2: QVQLQQSGAELARPGTSVKLSCKASGYTFTSYWMQWVKQTPGQGLEWIGAIYPGDGDSRYIQKFKGKATLTADKSSSTAYMQLSSLASEDSAVYYCARDGNYYAMDYWGQGTSVTVSS
VL 2: B1 VL 1 with M21I, N78S, L97P
notes: as for B1
B4: Bp109-94 epitope region-bridging biparatopic antibody (bispecific antibody, V domains shown)
VH 1: B2 VH 1
VL 1: B2 VL 1
VH 2: B3 VH 2
VL 2: B1 VL 1 with M21I, N78S, L97P
notes: as for B1
B5: Bp109-45 epitope region-bridging biparatopic antibody (bispecific antibody, V domains shown)
VH 1: B2 VH 1
VL 1: B2 VL 1
VH 2: B3 VH 1
VL 2: B3 VL 1
notes: as for B1
B6: Bp45-92 epitope region-bridging biparatopic antibody (bispecific antibody, V domains shown)
VH 1: B3 VH 1
VL 1: B3 VL 1
VH 2: B1 VH 2
VL 2: B1 VL 2
notes: The N side Fab (VH-CH1 plus light chain) is joined by Cfa DnaE split-intein trans-splicing to the hinge and hole Fc; The C side is VH-CH1-hinge-knob Fc plus light chain; Human IgG1 constant regions

Molecular target: T1, TNFR2 monomeric antigen
Assay: SPR (BIAcore T200), antibody captured with human antibody capture kit, monomeric antigen as analyte
Description: Binding kinetics analysis and evaluation of each antibody to a monomeric antigen and dimeric antigen were conducted through surface plasmon resonance (SPR) using BIAcore T200 system (GE Healthcare). Monomeric and dimeric antigens were prepared. The affinity of each antibody to the monomeric and dimeric antigens was evaluated to study the presence/absence of intramolecular bridging activity. The SPR technology is based on measuring the index of refraction near the surface of a gold coated biosensor chip. A change in the index of refraction indicates a change in mass on the surface due to an interaction between an immobilized antibody and a monomeric or dimeric antigen infused into the solution. The mass increases when a molecule binds to an antibody immobilized on the surface, whereas the mass decreases when an analyte dissociates from an immobilized antibody. Analysis of a biparatopic antibody and the original monoclonal antibody by SPR can not only evaluate the performance of each antibody, but also see the effect of multivalent bond.
The monomeric and dimeric antigens were prepared as shown in the schematic diagram of FIG. 8. First, an etanercept (Pfizer), which is an Fc fusion protein of a TNFR2 extracellular region, was prepared, and a TNFR2 antigen molecule was obtained by enzymatic degradation and reductive re-oxidation reaction. An antibody was immobilized on a sensor chip using a human antibody capture kit according to the protocol by using a BIAcore T200 system (GE Healthcare). The interaction was analyzed by using the two types of antigens described above as analytes.

binding result	Binder
binds	B1
binds	B2
binds	B3
binds	B4
binds	B5

Molecular target: T2, tumor necrosis factor receptor 2 …
Assay: flow cytometry on TNFR2-expressing Ramos-Blue cells, anti-human IgG-PE
Description: Subsequently, binding affinity of each antibody was evaluated using Ramos-Blue reporter cells expressing TNFR2. Each antibody was added at concentrations of 0.01, 0.1, 1, 10, 100, 1000, 10000, and 100000 ng/mL to the TNFR2-Ramos-Blue cells used in a reporter assay, and the cells were incubated for 1 hour on ice. After centrifugation for 5 minutes at 1200 rpm, the supernatant was removed. After washing once with a FACS buffer, anti-human IgG-PE was added to each well. The samples were left standing for 30 minutes away from light on ice. After centrifugation for 5 minutes at 1200 rpm, the supernatant was removed. After washing once with a FACS buffer, fluorescence was analyzed with a flow cytometer (FCM). The mean value of fluorescence intensity was used as a value corresponding to the amount of binding. Experiments were independently conducted twice under the same condition.

Binder	binding result
B1	binds
B2	binds
B3	binds
B4	binds
B6	binds
B5	binds
